Measured values from the nanobody polyreactivity screen of Harvey et al. (2022).

Experiment: yeast display, Sf9 membrane polyspecificity reagent, FACS + sequencing; frameworks hold sequencing errors
In short: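 Nanobodies from a synthetic yeast display library (Saccharomyces cerevisiae BJ5465), induced 36–48 hours with galactose, were stained 1 hour at 4 °C with 10% biotinylated, detergent-solubilized Sf9 membrane reagent, enriched on streptavidin microbeads, then FACS-sorted. Anti-HA (expression) and streptavidin (reagent binding) fluorescence set low and high (top ~1%) gates. Polyreactivity labels come from the gate of origin. Genes were colony-PCR amplified, MiSeq 2 × 250 sequenced and filtered by CDR length.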

Row | Sequence | polyreactivity (PSR sort gate)
1 | QVQLVESGGGLVQAGGSLRLSCAASGRTFTRYTMGWYRQAPGKERELVAAIRYSGGSTYYADSVKGRFTISRDNAKNTVYLQMNSLKPEDTAVYYCAARSYYYGFLYRYDYWGQGTQVTVSS | low polyreactivity
2 | QVQLVESGGGLVQAGGSLRLSCAASGRTFTSYAMGWYRQAPGKEREFVAAITTSGGSTYYTDSVKGRFTISRDNAKNTVYLQMNSLKPEDTAVYYCAAYVAYDRSGQYDYWGQGTQVTVSS | high polyreactivity
3 | QVQLVESGGGLVQAGGSLRLSCAASGRTFTSYAMGWYRQAPGKERELVAGISSGGSTFYADSVKGRFTISRDNAQNTVYLQMNSLKPEDTAVYYCAADFRRVFSKYSYYLYFDFDYWGQGTQVTVSS | low polyreactivity
4 | QVQLVESGGGLVQAGGSLRLSCAASGRTFTVNRMGWYRQAPGKERELVAGITLRGANTYYADSVKGRFTISRDNAKNTVYLQMNSLKPEDTAVYYCNDDVKYRYNHWGQGTQVTVSS | high polyreactivity
5 | QVQLVESGGGLVQAGGSLRLSCAASGRTFTVYAMGWYRPAPGKERELVAAISSGGITYYADSVKGRFTISRDNAKNTVYLQMNSLKPEDTAVYYCNTKSGKARYEFGYWGQGTQVTVSS | low polyreactivity
6 | QVQLVESGGGLVQAGGSLRLSCAASGRTFTVYAMGWYRQAPGKEREFVASISKSGGRTYYADSVKGRFTISRDNAKNTVYLQMNSLKPEDTAVYYCAKVETYLQIAYRRGYDSWGQGTQVTVSS | low polyreactivity
7 | QVQLVESGGGLVQAGGSLRLSCAASGRTFTVYAMGWYRQAPGKERELVATISGSTGSTYYADSVKGRFTISRDNAKNTVYLQMNSLKPEDTAVYYCAARVRYRYLIGSGFDYWGQGTQVTVSS | low polyreactivity
8 | QVQLVESGGGLVQAGGSLRLSCAASGRTFTYNAMGWYRQAPGKDRELVASIRRSGTITYSADSVKGRFTISRDNAKNTVYLQMNSLKPEDTAVYYCAARYPWYRYYSWGQGTQVTVSS | high polyreactivity
9 | QVQLVESGGGLVQAGGSLRLSCAASGRTFTYNAMGWYRQAPGKERELVAAISSSGGRTYYADSVKGRFTISRDNAKNTVYLQMNSLKPEDTAVYYCNKVKYRFSPPGYDYWGQGTQVTVSS | high polyreactivity
10 | QVQLVESGGGLVQAGGSLRLSCAASGRTFTYNTMGWYRQETGKQRELVAAISSSGGSTYYADSVKGRFTISRDNAKNTVYLQMNSLKPEDTAVYYCAKRYFSSSRYYYWGQGTQVTVSS | high polyreactivity
11 | QVQLVESGGGLVQAGGSLRLSCAASGRTFTYNVLGWYRVAPGKERELVAAITSGGSNYADSVKGRFTISRDNAKNTVYLQLNSLKPEDTAGYYCATDYYDDVTIGYDYWGPGTQVTVSS | low polyreactivity
12 | QVQLVESGGGLVQAGGSLRLSCAASGRTFTYYAMGWYIQAPGKERELVAAISSGGRTYYADSVKGRFTISRDNAKNTVYLQMNSLKPEDTAVYYCAADAYRSPWRLYGSRFGYWGQGTQVTVSS | high polyreactivity
13 | QVQLVESGGGLVQAGGSLRLSCAASGRTFTYYAMGWYRQAPGKERELVAAISRGGGSTHYADSVKGRFTISRDNEKNTVYLQMNSLKPEDTAVYYCAARYSTRYKYDYWGQGTQVTVSS | high polyreactivity
14 | QVQLVESGGGLVQAGGSLRLSCAASGRTFTYYAMGWYRQAPGKERELVAAITGRGGRTYYADSVKGRFTISRDIAKNTVYLQMNSLKREDTAVYYCATRDPYYSSEYTYGYWGQGTQVTVSS | high polyreactivity
15 | QVQLVESGGGLVQAGGSLRLSCAASGRTFTYYAMGWYRRAPGKERELVAAIRWTGDSTYYADSVKGRFTISRDNAKNTVYLQMNSLKPEHTAVYYCATQARWQYDGGIRWYYYWGQGTQVTVSS | high polyreactivity
16 | QVQLVESGGGLVQAGGSLRLSCAASGRTFTYYTMGWYRQAPGKERELVAAITWSGGRTYYADSVKGRFTISRDNAKNTVYLQMNSLKPEDTAVYYCAKPPQGTYDYWGQGTQVTVSS | low polyreactivity
17 | QVQLVESGGGLVQAGGSLRLSCAASGRTFVANGMGGYRQAPGKERELVAAINYGDDTYYADSVKGRFTISRDNAKNTVYLQMNSQKPEDTAFYFLAADIIYGYEVYTYTSDYWGQGTQVTVSS | low polyreactivity
18 | QVQLVESGGGLVQAGGSLRLSCAASGRTFVDYDMGWYRQAPGKERELVADINSGGSTYYADSVKGRFTISRDNAKNTVYLQMNSQKPEDTAVYDCAVRSRGTAPQYYYWGQGTQVTVSS | high polyreactivity
19 | QVQLVESGGGLVQAGGSLRLSCAASGRTFVENAMGWYRQAPGKERELVAAITYRGGRTFYADSVKGRFTISRDNAKNTVYLQMNSLKPEDTAVYYCNAVRRTGGHGDYWGQGTQVTVSS | high polyreactivity
20 | QVQLVESGGGLVQAGGSLRLSCAASGRTFVEYAMGWYRPAPGKERELVAAITWDGGSTYYADSVKGRFTISRDNAKYTVYLQMNSLKPEDTAVYYCNADYRQITSYGFDYWGQGTQVTVSS | low polyreactivity
21 | QVQLVESGGGLVQAGGSLRLSCAASGRTFVFYAMGWYRQAPGKESEFVARITWSGGRTFYADSVKGRFTISRDNAKNTVYLQMNSLKPEDTAVYYCAARGHDAVIATRYDYWGQGTQVTVSS | high polyreactivity
22 | QVQLVESGGGLVQAGGSLRLSCAASGRTFVFYTMGWYRQAPGKERELVAAINSRGGRTYYADSVKGRFTISRDNAKNPVYLQMNSLKPEDTAVYYCNAAFYVTDHDYWGKGTQVTVSS | high polyreactivity

Row | Sequence | polyreactivity (PSR sort gate)
23 | QVQLVESGGGLVQAGGSLRLSCAASGRTFVGNAIGWYRQATGKERELVAAINGSGGSTYYEDSVKGRFTISRDNAKNTVYLQMNSLKPEDPAVYYCNARPGVYVVIYDYWGQGTQVTVSS | low polyreactivity
24 | QVQLVESGGGLVQAGGSLRLSCAASGRTFVGYAMGWYRQAPGKERELVAAISGGGRTNYADSVKGRFTISRDNAKNTVYLQMISLKPEDTAVYYFAARLVKYFRPYDYWGQGTQVTVSS | high polyreactivity
25 | QVQLVESGGGLVQAGGSLRLSCAASGRTFVGYAMGWYRQAPGKERELVAAITSGGSTYYADSVKGRFTISRDNAKNTVYLQMNSLKPEDTAVYYCATALYDWYSLEFDYWGQGTQVTVSS | low polyreactivity
26 | QVQLVESGGGLVQAGGSLRLSCAASGRTFVGYAMGWYRQAPGKERELVAAMSASGTSTYYADSVKGRFTISRDNAKNTVYLQMNSLKPEDTAVYYCAKAKDLPPRYGSWGQGTQVTVSS | high polyreactivity
27 | QVQLVESGGGLVQAGGSLRLSCAASGRTFVIYAMGWYRQAPGKASELVAGIDSGTSTYADSVKGRFTISRDNAKNTVYLQMNSLKPEDTAVYYCAADFAPDGSGWYIPGDYDSWGQGTQVTVSS | low polyreactivity
28 | QVQLVESGGGLVQAGGSLRLSCAASGRTFVLNAMGWYRQAPGKERELVAAITLGGGSTYADSVKGRFTISRDNAKNTVYLQMNSLKPEDTAVYYCAADFHYPDFEYWGQGTQVTVSS | low polyreactivity
29 | QVQLVESGGGLVQAGGSLRLSCAASGRTFVPNAMGWYRQAPGKERELVAAISWSGDSTYYADSVKGRFTISRDNAKNTVYLQMNSLKPEDTAVYYCAADPFFGVSIGGLKYHFDYWGQGTQVTVSS | low polyreactivity
30 | QVQLVESGGGLVQAGGSLRLSCAASGRTFVPNAMGWYRQAPGKERELVARISSGDSTYYADSVKGRFTISRDNAKNTVYLQMNSLKPEDTAVYYCAASGRQNGYGRRQYYYWGQGTQVTVSS | high polyreactivity
31 | QVQLVESGGGLVQAGGSLRLSCAASGRTFVPYAMGWYRQAPGKERELVAAISARGSSTYYADSVKGRFTISRDNAKNTVYLQMNSLKPEDTAVYYCNAVGARVASATGMEYWGQGTQVTVSS | high polyreactivity
32 | QVQLVESGGGLVQAGGSLRLSCAASGRTFVPYAMGWYRQAPGKERELVAAISSGGDTNYADSVKGRFTISRDNAKNTVYLQMNSLKPEDSAVYYCAKDLTQIYYGDDYWGQGTQVTVSS | low polyreactivity
33 | QVQLVESGGGLVQAGGSLRLSCAASGRTFVRNAMGWYRQAPGKERELVAAISGSAGRTYYADSVKGRFTISRDNAKNTVYLQMNSLKPEDTAVYYCAKDTTVYGYYYWGQGTQVTVSS | high polyreactivity
34 | QVQLVESGGGLVQAGGSLRLSCAASGRTFVRYAMGWYRQAPGKERELVAAISQSGGDTYYADSVKGRFTISRDNAKNTVYLQMNSLKPEDTPVYYCAARSDDVSRYGYWGQGTQVTVSS | low polyreactivity
35 | QVQLVESGGGLVQAGGSLRLSCAASGRTFVRYAMGWYRQAPGKERELVAAISRTGGTTYYADSVKGRFTISRDNAKNTVYLQMNSLKPVDTAVYYCNADPFYKYGYWGQGTQVTVSS | high polyreactivity
36 | QVQLVESGGGLVQAGGSLRLSCAASGRTFVRYAMGWYRQAPGKERELVAAISWSGGSTYYADSVKGRFTISRDNAKNTVYLQKNSLKPEDTAVYYCAAVDETPSSHEEDYWGQGTQVTVSS | high polyreactivity
37 | QVQLVESGGGLVQAGGSLRLSCAASGRTFVRYAMGWYRQAPGKERELVARITSRGTSTYYADSVKGRFTISRDNAKNTVYLQMNSLKPEDTAFYYCNKVRTFRDKSRYDYWGQGTQVTVSS | low polyreactivity
38 | QVQLVESGGGLVQAGGSLRLSCAASGRTFVRYTMGWYRQAPGKERELVAAISGSGSSTFYADSVKGRFTISRDNAKNTVYLQMNSLKPVDTAVYYCAARVRRVARDPYDYWGQGTQVTVSS | high polyreactivity
39 | QVQLVESGGGLVQAGGSLRLSCAASGRTFVSNALGWYRQAPGKERELVAAISSSGGSTYYADSVKGRFTISRDNAKNTVYLQMNSLKPEDPAVYYGATYPLYSKYRYDHWGQGTQVTVSS | high polyreactivity
40 | QVQLVESGGGLVQAGGSLRLSCAASGRTFVSNAMGWYRQAPGKERELVAAISVRGGRTYYADSVKGRFTISRDNAKNTVYLQMNSLKPEDTAVYYCNAVYRTYEYYWGQGTQVTVSS | high polyreactivity
41 | QVQLVESGGGLVQAGGSLRLSCAASGRTFVSNAMGWYRQAPGKERELVAVITGIGGNTYYADSVKGRFTISRDNAKTTVYLQMYSLKPEDTAVYYCAADQIYSFYPVYGSWIYSMYYWGQGTQVTVSS | low polyreactivity
42 | QVQLVESGGGLVQAGGSLRLSCAASGRTFVSYAMGWYRQAPGKERELVAAINGNGASTRYADSVKGRFTISRDNAKNTVYLQMNSLKPEDTAVYYCNTGRRFYGYNYWGQGTQVTVSS | high polyreactivity
43 | QVQLVESGGGLVQAGGSLRLSCAASGRTFVTYAKGWYRQAPGKERELVAAISASGGSTYYADSVKGRFTISRDNAKNTVYLQMNSLNPEDTAVYYCAKTYFLATPYGYWGQGTQVTVSS | low polyreactivity
